In the supplement of paper PMC5998384:

Legend:
HeLa Kyoto [1] = test: solubility in G1/S (NP-40 vs SDS abundance) (log2 ratio); higher = more soluble; conditions: cell cycle stage: G1/S
HeLa Kyoto [2] = test: melting temperature (median over replicates), in situ; higher = more thermally stable
HeLa Kyoto [3] = test: solubility change mitosis vs G1/S (difference of NP-40 vs SDS log2 ratios) (log2 ratio difference); higher = more soluble in mitosis
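Wherever melting temperature (median over replicates), in situ is given: HeLa Kyoto cells synchronized by double thymidine or nocodazole block, proteins quantified by TMT10plex mass spectrometry, three independent biological replicates.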
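Wherever solubility change mitosis vs G1/S (difference of NP-40 vs SDS log2 ratios) is given: synchronized HeLa Kyoto cells (double thymidine block for G1/S, nocodazole release for mitosis), protein amounts in NP-40 versus SDS lysates quantified by mass spectrometry, three biological replicates.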
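Wherever solubility in G1/S (NP-40 vs SDS abundance) is given: HeLa Kyoto cells arrested at G1/S by double thymidine block, proteins quantified by TMT10plex mass spectrometry in mild NP-40 versus SDS extracts, three biological replicates.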

| Sequence | solubility in G1/S (log2) (HeLa Kyoto [1]) | melting temperature (HeLa Kyoto [2]; cell cycle stage: G1/S) [°C] | melting temperature (HeLa Kyoto [2]; cell cycle stage: mitosis) [°C] | solubility change mitosis (log2) (HeLa Kyoto [3]) |
| --- | --- | --- | --- | --- |
| MHQPPESTAAAAAAADISARKMAHPAMFPRRGSGSGSASALNAAGTGVGSNATSSEDFPPPSLLQPPPPAASSTSGPQPPPPQSLNLLSQAQLQAQPLAPGGTQMKKKSGFQITSVTPAQISASISSNNSIAEDTESYDDLDESHTEDLSSSEILDVSLSRATDLGEPERSSSEETLNNFQEAETPGAVSPNQPHLPQPHLPHLPQQNVVINGNAHPHHLHHHHQIHHGHHLQHGHHHPSHVAVASASITGGPPSSPVSRKLSTTGSSDSITPVAPTSAVSSSGSPASVMTNMRAPSTTGGIGINSVTGTSTVNNVNITAVGSFNPNVTSSMLGNVNISTSNIPSAAGVSVGPGVTSGVNVNILSGMGNGTISSSAAVSSVPNAAAGMTGGSVSSQQQQPTVNTSRFRVVKLDSSSEPFKKGRWTCTEFYEKENAVPATEGVLINKVVETVKQNPIEVTSERESTSGSSVSSSVSTLSHYTESVGSGEMGAPTVVVQQQQQQQQQQQQQPALQGVTLQQMDFGSTGPQSIPAVSIPQSISQSQISQVQLQSQELSYQQKQGLQPVPLQATMSAATGIQPSPVNVVGVTSALGQQPSISSLAQPQLPYSQAAPPVQTPLPGAPPPQQLQYGQQQPMVSTQMAPGHVKSVTQNPASEYVQQQPILQTAMSSGQPSSAGVGAGTTVIPVAQPQGIQLPVQPTAVPAQPAGASVQPVGQAPAAVSAVPTGSQIANIGQQANIPTAVQQPSTQVPPSVIQQGAPPSSQVVPPAQTGIIHQGVQTSAPSLPQQLVIASQSSLLTVPPQPQGVEPVAQGIVSQQLPAVSSLPSASSISVTSQVSSTGPSGMPSAPTNLVPPQNIAQTPATQNGNLVQSVSQPPLIATNTNLPLAQQIPLSSTQFSAQSLAQAIGSQIEDARRAAEPSLVGLPQTISGDSGGMSAVSDGSSSSLAASASLFPLKVLPLTTPLVDGEDESSSGASVVAIDNKIEQAMDLVKSHLMYAVREEVEVLKEQIKELIEKNSQLEQENNLLKTLASPEQLAQFQAQLQTGSPPATTQPQGTTQPPAQPASQGSGPTA [TSC22D1] | -0.382 | 54.4 | 53.1 | -0.0765 |
| MITKTHKVDLGLPEKKKKKKVVKEPETRYSVLNNDDYFADVSPLRATSPSKSVAHGQAPEMPLVKKKKKKKKGVSTLCEEHVEPETTLPARRTEKSPSLRKQVFGHLEFLSGEKKNKKSPLAMSHASGVKTSPDPRQGEEETRVGKKLKKHKKEKKGAQDPTAFSVQDPWFCEAREARDVGDTCSVGKKDEEQAALGQKRKRKSPREHNGKVKKKKKIHQEGDALPGHSKPSRSMESSPRKGSKKKPVKVEAPEYIPISDDPKASAKKKMKSKKKVEQPVIEEPALKRKKKKKRKESGVAGDPWKEETDTDLEVVLEKKGNMDEAHIDQVRRKALQEEIDRESGKTEASETRKWTGTQFGQWDTAGFENEDQKLKFLRLMGGFKNLSPSFSRPASTIARPNMALGKKAADSLQQNLQRDYDRAMSWKYSRGAGLGFSTAPNKIFYIDRNASKSVKLED [KNOP1] | -1.76 | 54.2 | 52.1 | 1.57 |
